Data from PMC3029384, “Dimeric SecA Couples the Preprotein Translocation in an Asymmetric Manner” (PLoS ONE, 2011).

B1: His6-tagged SecB (natural protein, Escherichia coli)
chain: MSEQNNTEMTFQIQRIYTKDISFEAPNAPHVFQKDWQPEVKLDLDTASSQLADDVYEVVLRVTVTASLGEETAFLCEVQQGGIFSIAGIEGTQMAHCLGAYCPNILFPYARECITSMVSRGTFPQLNLAPVNFDALFMNYLQQQAGEGTEEHQ
notes: SecB chaperone, Escherichia coli; The tag is named explicitly only in Materials and for the SecB/proOmpA assembly; also called SecB tetramer; tetrameric SecB
B2: proOmpA (natural protein, Escherichia coli, UniProt P0A910 1-346, looked up)
chain: MKKTAIAIAVALAGFATVAQAAPKDNTWYTGAKLGWSQYHDTGFINNNGPTHENQLGAGAFGGYQVNPYVGFEMGYDWLGRMPYKGSVENGAYKAQGVQLTAKLGYPITDDLDIYTRLGGMVWRADTKSNVYGKNHDTGVSPVFAGGVEYAITPEIATRLEYQWTNNIGDAHTIGTRPDNGMLSLGVSYRFGQGEAAPVVAPAPAPAPEVQTKHFTLKSDVLFNFNKATLKPEGQAALDQLYSQLSNLDPKDGSVVVLGYTDRIGSDAYNQGLSERRAQSVVDYLISKGIPADKISARGMGESNPVTGNTCDNVKQRAALIDCLAPDRRVEIEVKGIKDVVTQPQA
notes: Precursor form (unfolded, diluted out of 6 M urea); also called preprotein; source: kept in 6 M urea before dilution

How the values were obtained:
SecA (Escherichia coli) = SecA (Escherichia coli) (UniProt P10408); conditions: cited from earlier work
[1] = biological target: the molecule itself; assay: SEC; SecA monomer 3 uM and SecB monomer 30 uM incubated 1 h at 4 °C in buffer A (20 mM HEPES-KOH, 30 mM KCl, 1 mM DTT, pH 7.4); Superdex G200 analytical column at 4 °C; peak fraction checked by SDS-PAGE
His6-tagged SecB = biological target: B1; assay: SEC; SecA monomer 3 uM and preformed SecB/proOmpA 2 uM incubated 1 h at 4 °C in buffer A (20 mM HEPES-KOH, 30 mM KCl, 1 mM DTT, pH 7.4); Superdex G200 analytical column at 4 °C; fractions checked by SDS-PAGE; conditions: both partners purified

Molecule: SecA (from UniProt P10408)
- Kd (SecA (Escherichia coli)): 1000 nM

Molecule: B1
- stoichiometry N [1]: 4

Molecule: B2
- stoichiometry N (His6-tagged SecB): 1 proOmpA per SecB tetramer
